Test results as given in publication PMC8110956, “An infection-induced RhoB-Beclin 1-Hsp90 complex enhances clearance of uropathogenic Escherichia coli” (Nature Communications, 2021).

Target: T1, GST-fused Beclin 1 (human, UniProt Q14457 1-450)
T1 construct: Beclin 1, in pGEX4T-3; also called GST-Beclin 1; source: E. coli BL21 (DE3), purified (Glutathione Sepharose 4B)
Test: pull-down; about 1 μg of each purified GST-fused protein combined in 0.8% BSA in PBS at 4 °C overnight; precipitated with anti-RhoB or anti-Beclin 1 antibody (IgG as control) plus protein G Sepharose; western blot
Conditions: both partners purified

T1 sequence (Q14457 whole entry, the tested form may be a part): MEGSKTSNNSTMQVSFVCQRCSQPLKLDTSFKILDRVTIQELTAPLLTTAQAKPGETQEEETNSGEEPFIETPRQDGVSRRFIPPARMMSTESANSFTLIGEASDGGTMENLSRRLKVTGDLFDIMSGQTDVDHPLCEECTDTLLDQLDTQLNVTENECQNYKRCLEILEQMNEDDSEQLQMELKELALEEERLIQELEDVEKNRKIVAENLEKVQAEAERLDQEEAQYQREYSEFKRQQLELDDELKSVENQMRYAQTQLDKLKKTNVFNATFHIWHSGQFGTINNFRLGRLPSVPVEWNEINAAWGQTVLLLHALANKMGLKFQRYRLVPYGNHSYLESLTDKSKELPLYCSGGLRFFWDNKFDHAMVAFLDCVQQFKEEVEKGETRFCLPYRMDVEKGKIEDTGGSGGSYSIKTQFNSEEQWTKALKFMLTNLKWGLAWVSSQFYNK

B1: GST-RhoB (118–196) (domain or fragment, human, UniProt P62745 118-196, looked up)
chain: KKDLRSDEHVRTELARMKQEPVRTDDGRAMAVRIQAYDYLECSAKTKEGVREVFETATRAALQKRYGSQNGCINCCKVL
notes: source: E. coli BL21 (DE3), purified (Glutathione Sepharose 4B)
Question: Does B1 bind?
Answer: binds
